Changes are numbered by the printed parent chain. “And” between values parts separate entries of the source, which are not always exact repeats. Equal entries are not always repeated. Where two headings read alike, the source gives them in different places.
B1: S01 IgG1 (antibody, V domains shown)
VH: QVQLVESGGGLVKPGGSLRLSCAASGFTVGSNYMSWVRQAPGKGLEWVSVIYSGGSTYYADSVKGRFTISRDNSKNTLYLQMNSLRAEDTAVYYCARGSSGAWYFDLWGRGTLVTVSS
VL: EIVMTQSPSSLSASVGDSVTITCQASQDISNYLNWYQQKPGKAPKLLIYDASNLETGVPSRFSGGGSGTDFTLTITSLQPEDIATYYCQQYDNFPPTFGPGTKVDIK
notes: also called 501
B2: H05 IgG1 (antibody, V domains shown)
VH: QVQLVQSGAEVKKPGSSVKVSCKASGGTFSSYAISWVRQAPGQGLEWMGGIIPIFGTANYAQKFQGRVTITADESTSTAYMELSSLRSEDTAVYYCARSIFGVVIISHADGYYYGMDVWGQGTTVTVSS
VL: SYVLTQPPSVSVAPGQTARITCGANNIGRISVHWYQQKPGQAPVLVVYDDSDRPSGIPERFSGSNFGNTATLTISRVEAGDEADYYCQVWDSYSDHVIFGGGTKLTVL
notes: also called H5; HO5
B3: R04 scFv (scFv)
scFv: EIVMTQSPSSLSASVGDRVTITCQASQDISNYLNWCQQKPGKAPKLLIYDASNLETGVPSRFSGSGSGTGFTFTISSLQPEDFATYYCQQSYSTPYTFGQGTKVEIKSGGSTITSYNVNYTKLSSSGAQVQLQQSGPGLVKSSQTLSLTCAISGDSVSSNGAAWHWIRQSPSRGLEWLGRTYYRSGWYNDYAVSVKSRITINQDTSKNQFSLQLNSVTPEDTAVYFCAREGGGGRMDVWSQGTTVTVSS
B4: S01 scFv (scFv)
scFv: EIVMTQSPSSLSASVGDSVTITCQASQDISNYLNWYQQKPGKAPKLLIYDASNLETGVPSRFSGGGSGTDFTLTITSLQPEDIATYYCQQYDNFPPTFGPGTKVDIKSGGSTITSYNVYYTKLSSSDTQVQLVESGGGLVKPGGSLRLSCAASGFTVGSNYMSWVRQAPGKGLEWVSVIYSGGSTYYADSVKGRFTISRDNSKNTLYLQMNSLRAEDTAVYYCARGSSGAWYFDLWGRGTLVTVSS
notes: also called 501
B5: B04 IgG1 (antibody, V domains shown)
VH: QVQLVESGAEVKKPGASVKVSCKASGYTFTRYYMHWVRQAPGQGLEWMGIINPSGGTTSYAQKFQGRVTMTRDTSTSTVYMELSSLRSEDTAVYYCARSFGELTSFDYWGQGTLVTVSS
VL: SYVLTQPPSVSVAPGKTARITCGGNNIGIRSVHWYQQKPGQAPVLVIYYDSDRPSGIPERFSGSKSGNTATLTISRVEAGDEADYYCQVWDSSSDHPVFGGGTKLTVL
B6: F07 IgG1 (antibody, V domains shown)
VH: QVQLVQSGAEVKKPGSSVRVSCKVSGYTFTGYYMHWVRQAPGQGLEWMGIINPSGGSTSYAQKFQGRVTMTRDTSTSTVYMELSSLRSEDTAVYYCARVRVGASDAFDIWGQGTMVTVSS
VL: B5 VL with K16Q, I29S, R30K, I47V, Y49D, K65N, T73I, D95V, P97Y, G101T

Legend:
[1] = target: T1, SARS-CoV-2 spike protein receptor binding domain (RBD2) (SARS-CoV-2, UniProt P0DTC2 319-537); assay: SPR sandwich binning, ligand NN54
[2] = target: T1, SARS-CoV-2 spike protein receptor …; assay: SPR sandwich binning, ligand Anti-His
[3] = target: T1, SARS-CoV-2 spike protein receptor …; assay: SPR
[4] = target: T1, SARS-CoV-2 spike protein receptor …; assay: SPR sandwich binning, ligand S01
[5] = target: T1, SARS-CoV-2 spike protein receptor …; assay: SPR sandwich binning, ligand E08
[6] = target: T2, human ACE2 receptor on HEK cells (Human ACE2 293 cell line) (human, UniProt Q9BYF1 18-805); assay: fluorescence microscopy, PE-labelled IgG on HEK-ACE2 cells without RBD2-sfGFP
T2 construct: whole, on cells; also called HEK-ACE2; ACE2 293 cells
T2 sequence (Q9BYF1 18-805): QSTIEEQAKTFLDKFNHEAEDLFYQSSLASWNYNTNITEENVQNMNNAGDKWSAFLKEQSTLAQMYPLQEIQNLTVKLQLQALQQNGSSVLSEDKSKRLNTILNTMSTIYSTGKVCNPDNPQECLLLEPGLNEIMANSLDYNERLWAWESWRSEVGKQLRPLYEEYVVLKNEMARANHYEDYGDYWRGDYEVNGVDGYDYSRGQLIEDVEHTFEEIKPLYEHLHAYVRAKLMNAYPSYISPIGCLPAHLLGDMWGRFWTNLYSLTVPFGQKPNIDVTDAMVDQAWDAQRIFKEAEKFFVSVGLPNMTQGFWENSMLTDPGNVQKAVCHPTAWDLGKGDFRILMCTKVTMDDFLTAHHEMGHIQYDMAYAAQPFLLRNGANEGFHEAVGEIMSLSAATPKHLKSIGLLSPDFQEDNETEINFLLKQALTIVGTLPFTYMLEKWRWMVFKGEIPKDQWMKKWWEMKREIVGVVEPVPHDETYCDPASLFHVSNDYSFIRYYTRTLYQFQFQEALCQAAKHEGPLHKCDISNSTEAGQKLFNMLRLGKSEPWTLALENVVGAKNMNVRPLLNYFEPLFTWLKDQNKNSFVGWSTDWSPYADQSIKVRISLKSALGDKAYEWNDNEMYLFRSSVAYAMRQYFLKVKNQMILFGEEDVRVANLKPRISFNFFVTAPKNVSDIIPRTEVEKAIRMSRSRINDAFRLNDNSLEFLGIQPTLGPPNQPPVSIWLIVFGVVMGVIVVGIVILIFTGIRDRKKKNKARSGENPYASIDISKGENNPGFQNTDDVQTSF

[7] = target: T1, SARS-CoV-2 spike protein receptor …; assay: SPR sandwich binning, ligand F07
[8] = target: T1, SARS-CoV-2 spike protein receptor …; assay: SPR sandwich binning, ligand CR3022
[9] = target: T1, SARS-CoV-2 spike protein receptor …; assay: SPR sandwich binning, ligand H01
[10] = target: T1, SARS-CoV-2 spike protein receptor …; assay: SPR sandwich binning, ligand B04
[11] = target: T1, SARS-CoV-2 spike protein receptor …; assay: SPR sandwich binning, ligand H05
[12] = target: T1, SARS-CoV-2 spike protein receptor …
[13] = target: T1, SARS-CoV-2 spike protein receptor …; assay: SPR sandwich binning, ligand E01
[14] = target: T1, SARS-CoV-2 spike protein receptor …; assay: SPR, immobilized antibody, RBD injected, 1:1 fit
[15] = target: SARS-CoV-2 spike protein on whole SARS-CoV-2 virus (SARS-CoV-2, UniProt P0DTC2 14-1273); assay: cell-based or functional assay
[16] = target: T1, SARS-CoV-2 spike protein receptor …; assay: SPR sandwich binning, ligand G07
[17] = target: T1, SARS-CoV-2 spike protein receptor …; remark: listed apart in the source
[18] = target: T1, SARS-CoV-2 spike protein receptor …; remark: listed apart in the source
[19] = target: T1, SARS-CoV-2 spike protein receptor …; assay: flow cytometry, yeast-expressed scFv
[20] = target: T1, SARS-CoV-2 spike protein receptor …; assay: flow cytometry, yeast-displayed scFv, titration of biotinylated antigen
[21] = target: T1, SARS-CoV-2 spike protein receptor …; assay: flow cytometry, yeast-displayed scFv
[22] = target: T1, SARS-CoV-2 spike protein receptor …; assay: SPR, IgG

| Binder | normalized analyte binding to RBD2 held by the immobilized ligand [1] | normalized analyte binding to RBD2 held by the immobilized ligand [2] | Kd [3] [nM] | normalized analyte binding to RBD2 held by the immobilized ligand [4] | normalized analyte binding to RBD2 held by the immobilized ligand [5] | binding result [6] | normalized analyte binding to RBD2 held by the immobilized ligand [7] | normalized analyte binding to RBD2 held by the immobilized ligand [8] | normalized analyte binding to RBD2 held by the immobilized ligand [9] | normalized analyte binding to RBD2 held by the immobilized ligand [10] | normalized analyte binding to RBD2 held by the immobilized ligand [11] | normalized analyte binding to RBD2 held by the immobilized ligand [13] | Kd [14] [nM] | NT50 (nM), half neutralization titer [15] [nM] | Nmax (%), neutralization maximum [15] [%] | normalized analyte binding to RBD2 held by the immobilized ligand [16] | Kd [17] [nM] | Kd [18] [nM] | Kd [20] [nM] | Kd [21] [nM] | also measured |
| --- | --- | --- | --- | --- | --- | --- | --- | --- | --- | --- | --- | --- | --- | --- | --- | --- | --- | --- | --- | --- | --- |
| B1 | 1.64 | 1 | 170 | -0.03 | 1.79 | no binding (tested: 1 ug/mL) | 0.48 | 1.39 | -0.03 | 0.06 | 1.2 | -0.13 | 170 | 14.6 | 106 |  |  |  |  |  | Kd [12]: 174 nM |
| B2 |  | 1.35 | 51 | 1.73 | -0.12 |  | 0.9 | -0.15 | -0.1 | 1.75 | -0.17 | 1.81 | 51 |  |  | 0.9 | 46 |  |  |  |  |
| B3 |  |  |  |  |  |  |  |  |  |  |  |  |  |  |  |  |  | 293 | 293 | 293 | Kd [19]: > 280 nM and < 421 nM and 423 nM |
| B4 |  |  |  |  |  |  |  |  |  |  |  |  |  |  |  |  |  | 44.8 | 44.1 | 44.1 |  |
| B5 | 2.5 | 1.68 | 210 | -0.59 | 2.24 | no binding (tested: 1 ug/mL) | 0.05 | 2.22 | 0.71 | -0.11 | 1.87 | -0.15 | 210 | 56.7 | 53.3 | -0.07 | 208 |  |  |  | Kd [22]: 100 nM and 300 nM |
| B6 | 2.34 | 1.48 | 300 | 1.28 | 1.78 | no binding (tested: 1 ug/mL) | 0.07 | 0.9 | 0.1 | -0.05 | 1.39 | 1.9 | 300 | 45.2 | 74.7 | 0.14 | 300 |  |  |  |  |

Source: US12018066 (TRIAD NATIONAL SECURITY, dated 2024)
